According to article PMC12658102 (2025):
Values belong to the molecule of their own block, whether it stands above or below them.

Experiments:
[1] = biological target: TDP-43 C-terminal domain, wild type (human); test: AUC; sedimentation velocity, 25 °C, 50,000 rpm, absorbance at 280 nm, solution without salt; WT CTD at 33, 58 and 107 µM; c(s) analysis and global Lamm equation modelling of the 58 and 107 µM data (SEDPHAT), monomer-dimer-tetramer model (steps: dimer to monomers; tetramer to dimers); monomer-tetramer model fits similarly
[2] = biological target: TDP-43 CTD S→E S305C cross-linked (human) (UniProt Q13148); test: AUC; tetramer-octamer; conditions: domain or fragment
[3] = biological target: TDP-43 CTD S→E S305C cross-linked (human) (UniProt Q13148); test: AUC; dimer-tetramer; conditions: domain or fragment
TDP-43 CTD M323A = test: NMR chemical shift perturbation (15N CSP) as a function of protein concentration; conditions: pH 6.1, without salt; 90 μM vs 20 μM protein; read off a plot
TDP-43 CTD Q343A = test: as above; conditions: pH 6.1, without salt; 90 μM vs 20 μM protein; read off a plot
TDP-43 CTD M339A = test: as above; conditions: pH 6.1, without salt; 90 μM vs 20 μM protein; read off a plot
TDP-43 CTD S317A = test: as above; conditions: pH 6.1, without salt; 90 μM vs 20 μM protein; read off a plot
TDP-43 CTD F316A = test: as above; conditions: pH 6.1, without salt; 90 μM vs 20 μM protein; read off a plot
TDP-43 CTD S342A = test: as above; conditions: pH 6.1, without salt; 90 μM vs 20 μM protein; read off a plot
[4] = biological target: TDP-43 CTD S→E S317C cross-linked (human) (UniProt Q13148); test: AUC; dimer-tetramer, isotherm fit (dimer concentration units); conditions: domain or fragment
[5] = biological target: TDP-43 CTD S→E S317C cross-linked (human) (UniProt Q13148); test: AUC; dimer-tetramer, global Lamm equation modeling; conditions: domain or fragment
TDP-43 CTD L330A = test: NMR chemical shift perturbation (15N CSP) as a function of protein concentration; conditions: pH 6.1, without salt; 90 μM vs 20 μM protein; read off a plot
[6] = biological target: the molecule itself; test: analytical ultracentrifugation (SEDPHAT)

Kd,dim-tet (dimer-tetramer step) [1]: 2.7 µM
Kd,mon-dim (monomer-dimer step) [1]: 2400 µM
ceq (concentration for equal population of monomer and tetramer) [1]: 250 to 300 µM
stoichiometry N [1]: 4
Molecule: TDP-43 C-terminal domain, wild type (domain or fragment)

Kd [2]: 4.7 µM
Kd [3]: 58 µM
Molecule: TDP-43 CTD S→E S305C cross-linked (from UniProt Q13148)

ratio to parent (TDP-43 CTD M323A): 0.19
Molecule: TDP-43 C-terminal domain, wild type M323A

ratio to parent (TDP-43 CTD Q343A): 1.2
Molecule: TDP-43 C-terminal domain, wild type Q343A

ratio to parent (TDP-43 CTD M339A): 0.63
Molecule: TDP-43 C-terminal domain, wild type M339A

ratio to parent (TDP-43 CTD S317A): 1.2
Molecule: TDP-43 C-terminal domain, wild type S317A

ratio to parent (TDP-43 CTD F316A): 0.27
Molecule: TDP-43 C-terminal domain, wild type F316A

ratio to parent (TDP-43 CTD S342A): 1.1
Molecule: TDP-43 C-terminal domain, wild type S342A

Kd [4]: 45 µM
Kd [5]: 46 µM
Molecule: TDP-43 CTD S→E S317C cross-linked (from UniProt Q13148)

ratio to parent (TDP-43 CTD L330A): 0.13
Molecule: TDP-43 C-terminal domain, wild type L330A

Molecule: NPAMMAAAQAALQSSWGMMGMLA [TDP-43 CTD conserved region]
Kd [6]: 2400 µM

Molecule: NPAMMAAAQAALQSSWGMMGMLA [TDP-43 dimer CTD conserved region]
Kd [6]: 2.7 µM
